From the nanobody polyreactivity screen of Harvey et al. (2022)

Assay: yeast display, Sf9 membrane polyspecificity reagent, FACS + sequencing; frameworks hold sequencing errors
In short: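 In a synthetic yeast display library (Saccharomyces cerevisiae BJ5465), nanobody expression was induced with galactose for 36–48 hours. FACS gates were set low and high (top ~1%) using anti-HA fluorescence for expression and streptavidin fluorescence for binding of the Sf9 membrane reagent. Each polyreactivity label is drawn from the gate of origin.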

Row | Sequence | polyreactivity (PSR sort gate)
1 | QVQLVESGGGLVQAGGSLRLSCAASGSIFVSNAMGWYRQAPGKERELVAAITARDVSTYYADSVKGRFTISRDNAKNTVYLQMNSLKPEDTAVYYCAGNSSTYPSDDSYDYWGQGTQVTVSS | low polyreactivity
2 | QVQLVESGGGLVQAGGSLRLSCAASGSIFRFYAMGWYRQAPGKERELVAAITRRGGRTYYADSVKGRFTISRDNAKNTVYLQMNSLIPEDTAVYYCAAASKKPPSFEYNYWGQGTQLTVSS | high polyreactivity
3 | QVQLVESGGGLVQAGGILRLSCAASGSTFYIYAMGWYRQAPGKERELVAAISTTDGTTYYADSVKGRFTISRDNAKNTVYLQMNSLKPEDTAVYYWAAEWFGSVQPAYDYWGQGTQVTVSS | high polyreactivity
4 | QVQLVESGGGLVQAGGSLRLSCAASGRTFAIYVMGWYRQAPGKERELVAAISRGGSTYYADSVKGRFTISRDNAKNTVYLQMNSLKPEDTAVYYFAAGTGTTSRYYYWGQGTQVTVSS | high polyreactivity
5 | QVQLVESGGGLVQAGGSLRLSCAASGFIFGINAMGWYRQAPGKERELVAAISKRTGSTYYADSVKGRFTISRDNAKNTVYLQMNSLKPEDTAVYYCNVVRYNGLDKYDYWGQGTQVTVSS | high polyreactivity
6 | QVQLVESGGGVVQAGGSLRLSCAASGFISKLYAMGWYRQAPGKEREMVAAISSSGTSTYYADSVKGRFTISRDHANNTVYLQMNSLKPEDTAVYYCNARWYVRAYEYDYWGQGTQVTVSS | low polyreactivity
7 | QVQLVESGGGLVQAGGSLRLSCAASGRTFRSNAMGWYRQAPGKERELVAAIRTSGGSTYYADSVKGRFTISRDNAKNTVYLQMNSLKPEDTAVYYCNAELRDLEFDYWGQGTQVTVSS | low polyreactivity
8 | QVQLVESGGGLVQAGVSLRLSCAASGFTFYYNAMGWYRQAPGKERELVAAINYSGGSTYYADSVKGRFTISRDNAKNTVYLQMNSLKPEDTAVYYCNAVGYSVFRRYNYWGQGTQVTVSS | high polyreactivity
9 | QVQLVESGGGLVQAGGSLRLSCAASGFTFAWYTMGWYRQAPGKERELVAAITDSGDSTYYADSVKGRFTISRDNAKNTVYLQMNSLKPEDTAVYYCATRTWYWDIWITEYDYWGQGPQVTVSS | low polyreactivity
10 | QVQLVESGGGLVQAGGSLRLSCAASGLTFAYYVMGWYRQAPGKERELVATITRGGDTNYADSVKGRFTISRDNAKNTVYLQINSLKPEDTAVYYCAAGSYRDRTFAYNYWGQGTQVTVSA | high polyreactivity
11 | QVQLVESGGGLVQAGGSLRLICAASGSTFWYYAMGWYRTAPGKDRELVAAITYGGGSTYYADSVKGRFTISRDNAKNTVYLQMNSLKPEDTAVYYCAAQSYDYWYDYDYWGQGTQVTVSS | high polyreactivity
12 | QVQLVESGGGLVQAGGSLRLSCAASGSIFGYTTMGWYRQGPGKERELVAAINWSDGHTNYADSVKGRFTISRDNANNTVYLQLNSLKPEDTAVYYCAADWYRSSWTYNYWGQGSQVTVSS | low polyreactivity
13 | QVQLGESVGGLVQAGGSLRLSCAASGFTSRKNAMGWYRQAPGKERELVAAITQSSGRTYYADSVKGRFTISRVNAKNTVYLQMNRLKPEDTAVYYCAARRGGEDDYWGQGTQVTVSS | low polyreactivity
14 | QVQLVESGGGLVQAGGSLRLSCAASGRTFYIYAMGWYRQAPGKERELVAAINSGGSTYYADSVKGRFTISRDNAKNTVYLQMNSLKPEDTAVYYCAATKGYYFFGDRDYWGQGTQVTVSS | low polyreactivity
15 | QVQLEESGGGLVQAGGSLRLSCAASGRTFTHYAMGWYRQAPGRERELVAGITRSGGITYYADSVKGRFTISRDNANNTVYLQMNSLKPEDTAVYYCNAGFHGLAYFLKPEYDYWGQGTQVTVSS | low polyreactivity
16 | QVHLVESGGGLVQEGGSLPLTCAASGSTLRYYDMGWYRQPPRKERELFAAITTSGDDTYYADSVKRLFTISRDNAKYIVYLQMNSLKPEDTAVYYCAADGYGGHKYELESWGQGTQVTVSS | low polyreactivity
17 | QVQLVESVGGLVQAGGSLRLSFAASGSTFDVYAMGWYRQAPGKERELVAAIRSSGGSTFYADSVKGRFTISRDNAKNIVYLQMNSLNPEDTAVYYCAARSFVVSGYNKYYEYGYWGQGTQVTVSS | low polyreactivity
18 | QVQLVESGGGLVQAGGSLRLSCAASGSTFWPYAMGWYIQAPGKERELVAAITSSGGSTYYADSVKGRFTISRDNAKNTVYLQMNSLKAEDTAVYYCAADWSNLGAYDYWGQGTQVTVSS | low polyreactivity
19 | QVQLVESGGGLVQAGGSLRLSCAASGSISFYYGIGWYRHAPGKERELVAALNNTGSTNYADSVKGRFTISRDNAKNTVYLQMNSLKPEDTAVYYCNAEQWQSSEYGEWSKRDYWGHGTQVTVSS | low polyreactivity
20 | QVQLVESGGGLVQAGGSLRLSCAASGFIFYRYAMVWYRQAPGKEREFVARISANGGRTYYADSVKGRFTISRDNAKNTVYLQMNSLKPEDTAVYYCNAGRYATPYNYWGQGTQVTVSS | high polyreactivity
21 | QVQHVESGGGLGQAGGSLRLSCAASGSTFRSYAMGWYRQAPGKERELVAVISSGDSTYYADSLKGSFKISRDNAKNTVYLQMNSLKPDDTAVYYCAADSYFLVRWYGYWGQGTQVTVSS | low polyreactivity
22 | QVQLVESGGGLVQAGGSLRLSCAASGRIYGYAMGWYRQAPGKEREFVAVISRRGSSTYYADSVKGRFTISRDNAKNTVYLQMNSLKPEDTAVYYCAAGKFYYSIGPGYDYWGQGTQVTVSS | high polyreactivity

Row | Sequence | polyreactivity (PSR sort gate)
23 | QVQLVESGGGLVQAGGSFRLSCPASGGPVDTYVMGCYRQARGKERELVAVITRGASTYYADSVKGRFTITRDNAKNTVYLQNNRLKPEDTAVYYCAAAFYSPDFYRFWYSFDYWGQGTQVTVSS | low polyreactivity
24 | QVQLVESGGGLVQAGGSLRLSCAASGFIFTQNAMGWYRQAPGKERELVARISRRGGSTYYADSVKGRFTISRDNAKNTVYLQMNSLKPEDTAVYYCAATINYPGPTRFVSGNHDYWGQGTQVTVSS | high polyreactivity
25 | QVQLVESGGGLVQAGGSLRLSCAASGSTSYNAMGWYRQPPGKERELVAAITSSGGRTYYADSVKGRFTISRDNAKNTVYLQMNSLKPEDTAVYYCNAPTSARRQGKDYGYWGQGTQVTVSS | high polyreactivity
26 | QVQLVESGGGLVQAGGSLRLSCAASGSTFWSYTMGGYRQAPGKERELVAAISRSGGSTYYADSVKGRFTISRDNAKNTVYLQKNSLKPEDTAVYYCAASDRYGSRYYYWGQGTQVTVSS | high polyreactivity
27 | QVQLVESGGGLVQAGGSLRLSCAASGFTFQAYAMGWYRQAPGKERELVAAIRSRGDSTYYADSVKGRFTISRDNAKNTVYLQMNSLKPEDTAVYYCNVLGYSYWGQGTQVTVSS | high polyreactivity
28 | QVQLEESGGGLVQAGGSLRLTCAPSGTTFSRYVMGWYRQAPGKERELVAAINRSSGSTYYADSVKGRFTISRDNAKNTVYLQMNSLKPEDTAVYYCAALYRKRGSVQYDYWGQGTQVTVSS | high polyreactivity
29 | QVKLVESGGALVQAGGSLRLSCPASGRTFGQTAMGWYRQAPGKERELVAAITWSDDDTYYADSVKGRFTISRDNAKNTVYLQMNSLKPEDTAVYYCAATYPYRQYDYWGQGTQVTVSS | low polyreactivity
30 | QVQLVESGGGLVQAGGSLRLSCAASGRNFVYNAMGWYRQAPGKERELVAAITWGGGSTYYADSVKGRFTISRDKAKNTVYLQMNSLKPEDTAVYYCAADGVRKFPNSRYDYWGQGTQVTVSS | low polyreactivity
31 | QVQLVESGGGLVQAGGSLRLSCAASGIIFYIYTMGWYRQAPGKERELVAAINRSGSRTYYADSVKGRFTISRDNAKNTVYLQMNSLKPEDTAVYYCAAGTGSRDDYWGQGTQVTVSS | high polyreactivity
32 | QVQLVESGGGLVQAGGSLRLSCAASGIISYYYAMGWYRQAPGKERELVAAISSSGNTYYADSVKGRFTISRDNAKNTVYLQMNSLKPEDTAVYYCAAESYGYYAADDDNYLTWYDYWGQGTQVTVSS | high polyreactivity
33 | QVQLVESGGGLVQAGGSLRLSCAASGFTFSYNAMGWSRQAPGKERELVAAISSAGSTYYADSVKGRFTISRDNAKNTVYLQMNSLKPEDTAVYYCNAYRRSYRWYGDLGEYWGQGTQVTVSS | high polyreactivity
34 | QVQLVESGGGLVQAGGSLRLSCAASGTTFTDNAMGWYRQAPGKERELVAAITSGSSTNYADSVKGRFTISRDNAKNTVSLQMNSLKPEDTAVYYCATGQVPQYSTGDYWGQGTQVTVSS | low polyreactivity
35 | QVQLVESGGGLVQAGGSLRLSCAASGRTFGLYAMGWYRQSPGKERELVATISRGGSTYYADSVKGRFTISRDNAKNTVYLQMNSLKPEDTAVYYCNAAKYTWYYGYNYWGQGTKVTVSS | high polyreactivity
36 | QVQLVESGGGLVQAGGSLRLSCDASGFTFGENAMGWYRQAPGNERELVAAISWSGTYTSYADSVKGRFTLSRDNAKNTVYLQMNSLKPEDTAVYYCATGCYAYVYPFDYWGQGTLVTVSS | low polyreactivity
37 | QVQLVESGGGLVQAGGSLRLSCAASGSIFIWYAMAWYRQAPWKERELVAAIRSGGSTYYADSVKGRFTISRDNAKNTVYLQMNSLKPEDTAVYYCAKVLTWRGYRYNYWGQGTQVTVSS | low polyreactivity
38 | QVQLVESGGGLVQAGGSLRLSCAASGSTFDIYAMGWYRQAHGKERELVAVISGGEGSTYYADSVKGRFTISRDNAKNTVYLQMNSLKPEDTAVYYCAADYISPGYWDGEYDCWGQGTQVTVSS | low polyreactivity
39 | QVQLVESGGGLVQAGGSLRLSCAASGSIFGDNAMGWYRQAPGKERELVAAISIVGSTSYADSVKGRFTISRDNAKNTVYLPMNSLKPEDTAVYYCAAETVRSDTGFDYWGQGTQVTVSS | low polyreactivity
40 | QVQLVESGGGLVQAGGSLRLICAASGLTFGWYAMGWYRQAPGKERELVAAITYDGDSTYYADSVKGRFTISRDNAKNTVYLQMNSLKPEDTAVYYCAAEYGYGEMDSWGQGTQVTVSS | high polyreactivity
41 | QVQLVESGGGLVQAGGSLRLSCAASGFIFRSNTMGWYRQAPGKERELVAAITWSGGNTYYADSVKGRFTISRDNAKNTVYLQMNSLKPEDTAVYYCATVTRLYRHGYWGQGTQVTVSS | high polyreactivity
42 | QVQLEESGGGLVQAGGSLRLSCAASGSTFDTYAMGWYRPAPGKERELVAGITRRGGRTYYADSVKGRFTISRDTAKNTVYLQKYSLKPEDTAVYYCNAVPQRPVGKRDHWGQGTQVTVSS | high polyreactivity
43 | QVQLVESGGGLVHAGGSLRLSCAASGRTFKKYAMGLYRQAPGKERELVAAISWSGGTTYYADSVKGRFTISRDNAKNTVYLQMNSLKPEDTAVYYCAARVSRTGDGYYYYWGQGTQVTVSS | high polyreactivity
